Biological target: T1, Recombinant human CTLA-4 (human, UniProt P16410 36-161, limits assumed)
T1 sequence (looked up): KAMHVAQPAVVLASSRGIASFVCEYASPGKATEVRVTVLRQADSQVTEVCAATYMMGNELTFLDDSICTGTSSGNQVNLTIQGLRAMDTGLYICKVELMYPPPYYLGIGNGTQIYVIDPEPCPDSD
Assay: ELISA; recombinant human CTLA-4 coated at 5 µg/mL, T cell culture supernatant added, detected with rabbit anti-NGAL polyclonal antibody and goat anti-rabbit IgG-HRP
Experimental: FIG. 2: Detection of functional T-cell secreted CTLA-4 antagonist by ELISA. The supernatant of human peripheral blood T cells, mock-transduced or transduced with pSIN-(NFAT)6-αCTLA-4 and cultured under activatory conditions (cf. Example 1 and FIG. 1) was analyzed for the presence of functionally active CTLA-4 antagonist SEQ ID NO: 28 by ELISA. Recombinant human CTLA-4 was coated on an ELISA plate as described in Example 1, and culture supernatants of transduced and mock-transduced T cells were added. Plate-bound SEQ ID NO: 28 was detected by primary staining with an anti-NGAL polyclonal antibody from the rabbit, secondary staining using goat anti rabbit IgG-HRP and addition of a chromogenic HRP substrate as described in Example 1.
Supernatants were analyzed for the presence of functionally active Anticalin-based CTLA-4 antagonist by ELISA as described in the following: Recombinant human CTLA-4 at a concentration of 5 μg/mL in PBS was added to each well of a 384 well ELISA plate and incubated over night at 4° C. […] Subsequently, rabbit anti-NGAL polyclonal antibody at a concentration of 1 μg/mL in PBS/0.1% (w/v) Tween20/2% (w/v) BSA was added, and bound antibody was detected using goat anti-rabbit IgG-HRP in a dilution of 1:5,000 in PBS/0.1% (w/v) Tween20/2% (w/v) BSA. […] Fluorescence signals in RFU (relative fluorescence units) were measured using a plate fluorescence reader.

B1: Anticalin-based CTLA-4 antagonist with Strep-tag II, mature processed secreted form (SEQ ID NO: 28) (designed binder)
chain: QDSTSDLIPAPPLSKVPLQQNFQDNQFQGKWYVVGLAGNRILRQDQHPMLMYATIYELKEDKSYQVTSVISSHKKCLYPIATFVPGSQPGEFTLGNIKSYGDKVSYLVRVVSTNYNQHAMVFFKHADTNYESFSITLYGRTKELTSELKENFIRFSKSLGLPENHIVFPVPIDQCIDGSAWSHPQFEK
notes: also called anti-CTLA-4 Anticalin; αCTLA-4
B1: binds.
